Numbering of substitutions follows the chain as printed.
Tests used:
[1] = target: pre-existing anti-scFv903 antibodies in human serum H105 (human); assay: competition ADA bridging ELISA
[2] = target: pre-existing anti-scFv903 antibodies in human serum H115 (human); assay: competition ADA bridging ELISA
[3] = target: pre-existing anti-scFv903 antibodies in human serum H116 (human); assay: competition ADA bridging ELISA
[4] = target: pre-existing anti-scFv903 antibodies in human serum H125 (human); assay: competition ADA bridging ELISA
[5] = target: pre-existing anti-scFv903 antibodies in human serum H135 (human); assay: competition ADA bridging ELISA
[6] = target: pre-existing anti-scFv903 antibodies in human serum H14 (human); assay: competition ADA bridging ELISA
[7] = target: pre-existing anti-scFv903 antibodies in human serum H15 (human); assay: competition ADA bridging ELISA
[8] = target: pre-existing anti-scFv903 antibodies in human serum H19 (human); assay: competition ADA bridging ELISA
[9] = target: pre-existing anti-scFv903 antibodies in human serum H20 (human); assay: competition ADA bridging ELISA
[10] = target: pre-existing anti-scFv903 antibodies in human serum H21 (human); assay: competition ADA bridging ELISA
[11] = target: pre-existing anti-scFv903 antibodies in human serum H26 (human); assay: competition ADA bridging ELISA
[12] = target: pre-existing anti-scFv903 antibodies in human serum H29 (human); assay: competition ADA bridging ELISA
[13] = target: pre-existing anti-scFv903 antibodies in human serum H3 (human); assay: competition ADA bridging ELISA
[14] = target: pre-existing anti-scFv903 antibodies in human serum H40 (human); assay: competition ADA bridging ELISA
[15] = target: pre-existing anti-scFv903 antibodies in human serum H46 (human); assay: competition ADA bridging ELISA
[16] = target: pre-existing anti-scFv903 antibodies in human serum H49 (human); assay: competition ADA bridging ELISA
[17] = target: pre-existing anti-scFv903 antibodies in human serum H50 (human); assay: competition ADA bridging ELISA
[18] = target: pre-existing anti-scFv903 antibodies in human serum H53 (human); assay: competition ADA bridging ELISA
[19] = target: pre-existing anti-scFv903 antibodies in human serum H54 (human); assay: competition ADA bridging ELISA
[20] = target: pre-existing anti-scFv903 antibodies in human serum H55 (human); assay: competition ADA bridging ELISA
[21] = target: pre-existing anti-scFv903 antibodies in human serum H56 (human); assay: competition ADA bridging ELISA
[22] = target: pre-existing anti-scFv903 antibodies in human serum H59 (human); assay: competition ADA bridging ELISA
[23] = target: pre-existing anti-scFv903 antibodies in human serum H60 (human); assay: competition ADA bridging ELISA
[24] = target: pre-existing anti-scFv903 antibodies in human serum H63 (human); assay: competition ADA bridging ELISA
[25] = target: pre-existing anti-scFv903 antibodies in human serum H64 (human); assay: competition ADA bridging ELISA
[26] = target: pre-existing anti-scFv903 antibodies in human serum H66 (human); assay: competition ADA bridging ELISA
[27] = target: pre-existing anti-scFv903 antibodies in human serum H69 (human); assay: competition ADA bridging ELISA
[28] = target: pre-existing anti-scFv903 antibodies in human serum H76 (human); assay: competition ADA bridging ELISA
[29] = target: pre-existing anti-scFv903 antibodies in human serum H79 (human); assay: competition ADA bridging ELISA
[30] = target: pre-existing anti-scFv903 antibodies in human serum H8 (human); assay: competition ADA bridging ELISA
[31] = target: pre-existing anti-scFv903 antibodies in human serum H80 (human); assay: competition ADA bridging ELISA
[32] = target: pre-existing anti-scFv903 antibodies in human serum H81 (human); assay: competition ADA bridging ELISA
[33] = target: pre-existing anti-scFv903 antibodies in human serum H86 (human); assay: competition ADA bridging ELISA
[34] = target: pre-existing anti-scFv903 antibodies in human serum H96 (human); assay: competition ADA bridging ELISA
[35] = target: pre-existing anti-scFv903 antibodies in human serum H135 (human); assay: competition ADA bridging ELISA, 100 mcg/ml competitor
[36] = target: pre-existing anti-scFv903 antibodies in human serum H15 (human); assay: as above
[37] = target: pre-existing anti-scFv903 antibodies in human serum H19 (human); assay: as above
[38] = target: pre-existing anti-scFv903 antibodies in human serum H21 (human); assay: as above
[39] = target: pre-existing anti-scFv903 antibodies in human serum H29 (human); assay: as above
[40] = target: pre-existing anti-scFv903 antibodies in human serum H49 (human); assay: as above
[41] = target: pre-existing anti-scFv903 antibodies in human serum H53 (human); assay: as above
[42] = target: pre-existing anti-scFv903 antibodies in human serum H63 (human); assay: as above
[43] = target: pre-existing anti-scFv903 antibodies in human serum H8 (human); assay: as above
[44] = target: pre-existing anti-scFv903 antibodies in human serum H80 (human); assay: as above
[45] = target: pre-existing anti-scFv903 antibodies in human serum H81 (human); assay: as above
[46] = target: pre-existing anti-scFv903 antibodies in human serum H64 (human); assay: as above

B1: scFv 903 (scFv)
scFv: EIVMTQSPSTLSASVGDRVIITCQASEIIHSWLAWYQQKPGKAPKLLIYLASTLASGVPSRFSGSGSGAEFTLTISSLQPDDFATYYCQNVYLASTNGANFGQGTKLTVLGGGGGSGGGGSGGGGSGGGGSEVQLVESGGGLVQPGGSLRLSCTASGFSLTDYYYMTWVRQAPGKGLEWVGFIDPDDDPYYATWAKGRFTISRDTSKNTVYLQMNSLRAEDTAVYYCAGGDHNSGWGLDIWGQGTLVTVSS
In the case of B1, the signal change in competition ELISA (% reduction in OD) [1] is reported as -97%, the signal change in competition ELISA (% reduction in OD) [2] is reported as -95% and the signal change in competition ELISA (% reduction in OD) [3] is reported as -98%. It also gave a signal change in competition ELISA (% reduction in OD) [4] of -98%, a signal change in competition ELISA (% reduction in OD) [5] of -93% and a signal change in competition ELISA (% reduction in OD) [6] of -97%. For the same binder, the signal change in competition ELISA (% reduction in OD) [7] was -91%, the signal change in competition ELISA (% reduction in OD) [8] was -90% and the signal change in competition ELISA (% reduction in OD) [9] was -92%. For the same binder, the signal change in competition ELISA (% reduction in OD) [10] was -85%, the signal change in competition ELISA (% reduction in OD) [11] was -92% and the signal change in competition ELISA (% reduction in OD) [12] was -79%. For the same binder, the signal change in competition ELISA (% reduction in OD) [13] was -80%, the signal change in competition ELISA (% reduction in OD) [14] was -95% and the signal change in competition ELISA (% reduction in OD) [15] was -80%. The signal change in competition ELISA (% reduction in OD) [16] was -83%, the signal change in competition ELISA (% reduction in OD) [17] was -89% and the signal change in competition ELISA (% reduction in OD) [18] was -32%. The signal change in competition ELISA (% reduction in OD) [19] was -93%, the signal change in competition ELISA (% reduction in OD) [20] was -89% and the signal change in competition ELISA (% reduction in OD) [21] was -24%. The signal change in competition ELISA (% reduction in OD) [22] was -97%, the signal change in competition ELISA (% reduction in OD) [23] was -96% and the signal change in competition ELISA (% reduction in OD) [24] was -97%. It also gave a signal change in competition ELISA (% reduction in OD) [25] of -97%, a signal change in competition ELISA (% reduction in OD) [26] of -97% and a signal change in competition ELISA (% reduction in OD) [27] of -92%. It also gave a signal change in competition ELISA (% reduction in OD) [28] of -97%, a signal change in competition ELISA (% reduction in OD) [29] of -97% and a signal change in competition ELISA (% reduction in OD) [30] of -87%. The signal change in competition ELISA (% reduction in OD) [31] was -87%, the signal change in competition ELISA (% reduction in OD) [32] was -95% and the signal change in competition ELISA (% reduction in OD) [33] was -86%. It also gave a signal change in competition ELISA (% reduction in OD) [34] of -80%, a % reduction in OD [35] of -92.5% and a % change in OD (signal change in competition ELISA) [36] of -91.1%. The signal change in competition ELISA (% change in OD) [37] was -90.3%, the % signal change in competition ELISA [38] was -85.4% and the % change in OD signal [39] was -79.4%. It also gave a % change in OD in competition ELISA [40] of -82.7%, a signal change in competition ELISA (%) [41] of -32.4% and a % change in OD (signal change in competition ELISA) [42] of -96.8%. The % reduction in OD [43] was -87.3%, the % reduction in OD [44] was -87% and the % reduction in OD [45] was -94.7%.

B2: scFv 961 (scFv)
scFv: B1 scFv with L142S, V224T, L246T
B2 showed a signal change in competition ELISA (% reduction in OD) [1] of 7%, a signal change in competition ELISA (% reduction in OD) [2] of -31% and a signal change in competition ELISA (% reduction in OD) [3] of -33%. It also gave a signal change in competition ELISA (% reduction in OD) [4] of 3%, a signal change in competition ELISA (% reduction in OD) [5] of -75% and a signal change in competition ELISA (% reduction in OD) [8] of -64%. For the same binder, the signal change in competition ELISA (% reduction in OD) [9] was -23%, the signal change in competition ELISA (% reduction in OD) [10] was -81% and the signal change in competition ELISA (% reduction in OD) [11] was 0%. The signal change in competition ELISA (% reduction in OD) [12] was -22%, the signal change in competition ELISA (% reduction in OD) [13] was -2% and the signal change in competition ELISA (% reduction in OD) [14] was -2%. For the same binder, the signal change in competition ELISA (% reduction in OD) [15] was -40%, the signal change in competition ELISA (% reduction in OD) [16] was -9% and the signal change in competition ELISA (% reduction in OD) [17] was -73%. For the same binder, the signal change in competition ELISA (% reduction in OD) [18] was -31%, the signal change in competition ELISA (% reduction in OD) [19] was -69% and the signal change in competition ELISA (% reduction in OD) [20] was -15%. It also gave a signal change in competition ELISA (% reduction in OD) [21] of -24%, a signal change in competition ELISA (% reduction in OD) [22] of -67% and a signal change in competition ELISA (% reduction in OD) [23] of -1%. The signal change in competition ELISA (% reduction in OD) [24] was -36%, the signal change in competition ELISA (% reduction in OD) [25] was -14% and the signal change in competition ELISA (% reduction in OD) [27] was -6%. It also gave a signal change in competition ELISA (% reduction in OD) [28] of -36%, a signal change in competition ELISA (% reduction in OD) [29] of -74% and a signal change in competition ELISA (% reduction in OD) [30] of -89%. For the same binder, the signal change in competition ELISA (% reduction in OD) [31] was -55%, the signal change in competition ELISA (% reduction in OD) [32] was -9% and the signal change in competition ELISA (% reduction in OD) [33] was -68%. For the same binder, the signal change in competition ELISA (% reduction in OD) [34] was -78%, the % reduction in OD [35] was -74.7% and the % reduction in OD [37] was -63.7%. The % reduction in OD [38] was -80.5%, the % reduction in OD [39] was -21.9% and the % reduction in OD [40] was -8.8%. It also gave a % reduction in OD [41] of -30.9%, a % reduction in OD [42] of -35.9% and a % reduction in OD [46] of -13.7%. The % reduction in OD [43] was -88.6%, the % reduction in OD [44] was -55.1% and the % reduction in OD [45] was -8.8%.

From patent publication US20210214461A1
